Experimental findings from patent US20210155689A1 (SHANGHAI PHARMAEXPLORER, published 2021) are described below.

Test [1] has as its target T1, human LAG-3 (full length, on the cell surface) (human, UniProt P18627 23-525).
T1 construct: Full-length human LAG-3 expressed on cells; also called HEK293-hLAG-3; HEK293 cells transfected with LAG-3 gene
T1 sequence: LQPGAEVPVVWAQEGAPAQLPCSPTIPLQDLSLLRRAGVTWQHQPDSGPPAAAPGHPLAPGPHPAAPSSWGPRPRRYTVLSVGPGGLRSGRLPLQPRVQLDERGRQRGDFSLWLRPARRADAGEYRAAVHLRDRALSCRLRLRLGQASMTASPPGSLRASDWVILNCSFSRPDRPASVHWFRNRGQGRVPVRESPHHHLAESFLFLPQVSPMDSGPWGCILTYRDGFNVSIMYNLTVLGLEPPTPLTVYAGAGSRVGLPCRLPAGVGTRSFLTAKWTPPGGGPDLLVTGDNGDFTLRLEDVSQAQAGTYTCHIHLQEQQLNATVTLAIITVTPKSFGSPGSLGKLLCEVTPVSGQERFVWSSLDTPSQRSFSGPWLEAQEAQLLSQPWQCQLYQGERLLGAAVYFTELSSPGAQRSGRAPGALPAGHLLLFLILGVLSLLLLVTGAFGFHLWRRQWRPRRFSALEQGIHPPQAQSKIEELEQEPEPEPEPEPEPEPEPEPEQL
Nature of the test: FACS, HEK293-hLAG-3; 0.064 nM. From the text: (§1) The pIRES plasmid with the monkey-derived full-length gene was transfected into the HEK293 cell line to construct a HEK293 stable cell line containing monkey LAG-3 (herein referred to as HEK293-cLAG-3 stable cell line). The HEK293-hLAG-3 stable cell line and HEK293-cLAG-3 stable cell line were expanded in a T-75 cell culture flask to a 90% confluence. The medium was aspirated, and the cells were washed with HBSS (Hanks' Balanced Salt Solution) 1-2 times, then treated with a enzyme-free cell dissociation fluid (Versene solution: Life technology) and the cells were collected. The cells were washed with HBSS buffer for 1-2 times. After counted, the cells were diluted with HBSS to 1-2×10⁶ cells per ml, added with 1% goat serum blocking solution, incubated on ice for 20-30 minutes, and then washed with HBSS for 2 times by centrifugation. The collected cells were suspended in the FACS buffer (HBSS+1% BSA) to 2×10⁶ cells/ml, added as 100 microliters per well to a 96-well FACS reaction plate, added with 100 microliters per well of the antibody sample to be tested, incubated on ice for 1-2 hours. The plate was washed twice with the FACS buffer by centrifugation, added with 100 microliters of fluorescent (Alexa 488)-labeled secondary antibodies per well, and incubated on ice for 0.5-1.0 hours. The plate was washed 2-3 times with FACS buffer by centrifugation, added with 100 μl fixative solution (4% Paraformaldehyde) per well to suspend the cells. 5-10 minutes later, it was washed 1-2 times with FACS buffer by centrifugation. The cells were suspended with 100 microliters of FACS buffer, FACS (FACSCalibur, BD) was used for detection and the results were analyzed.

Test [2] deals with T1, human LAG-3 (full length, on the cell …). Nature of the test: FACS, HEK293-hLAG-3; 200.000 nM.
Description: as §1

Test [3] deals with T2, human LAG-3 protein with hFc tag (hLAG-3-hFc protein) (human, UniProt P18627 23-450).
T2 construct: also called immunogen 1; LAG-3 extracellular domain protein; not shown: human IgG Fc fragment (hFc) of the pCpC vector
T2 sequence: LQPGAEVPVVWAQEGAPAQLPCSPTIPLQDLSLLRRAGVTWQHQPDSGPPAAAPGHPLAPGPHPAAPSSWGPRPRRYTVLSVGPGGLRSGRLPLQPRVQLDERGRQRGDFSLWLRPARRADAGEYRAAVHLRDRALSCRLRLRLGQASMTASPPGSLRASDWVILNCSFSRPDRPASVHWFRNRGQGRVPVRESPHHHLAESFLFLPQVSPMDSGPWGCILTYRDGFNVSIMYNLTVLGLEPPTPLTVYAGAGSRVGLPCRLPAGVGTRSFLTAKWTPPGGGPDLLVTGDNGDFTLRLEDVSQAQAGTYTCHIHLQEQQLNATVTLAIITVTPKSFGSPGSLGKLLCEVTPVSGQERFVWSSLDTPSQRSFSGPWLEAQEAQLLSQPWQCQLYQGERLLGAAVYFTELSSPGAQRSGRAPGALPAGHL
Nature of the test: FACS, blocks LAG-3-hFc binding to MHC II on Raji; 22.222 nM. The protocol:
The FACS reaction plate incubating the Raji cells was centrifuged to discard the supernatant. The above mixture was added as 100 μl per well to Raji cells and incubated on ice for 1-2 hours. The plate was washed twice with blocking solution (PBS, 2% fetal bovine serum) by centrifugation, added with 100 microliters of fluorescent (Alexa 488)-labeled secondary antibodies per well, and incubated on ice for 1.0 hours. The plate was washed 2-3 times by centrifugation with blocking solution (PBS, 2% fetal bovine serum), added with 100 microliters of PBS per well to suspend cells, and detected using FACS (FACS Calibur, BD) and the results were analyzed. Wherein, the IgG control was murine IgG, and the data in the table is the inhibition rate (%).

B1: 556F6B8 (mouse antibody purified from hybridoma) (antibody, V domains shown)
VH: RVQLKQSGPGLVQPSQSLSITCTVSGFSLIKYGVHWVRQSPGEGLEWLGVIWRGGITDYNAAFMSRLSITKDNSKSQVFFKMNSLQADDTAIYYCAKWDGPLAMDYWGQGTSVTVSS
VL: DIVMTQSHKFLSTSVGDRVSITCKASQDVGTTVAWYQQKPGQSPKLLIYWASTRHTGVPDRFTGSGSGTDFTLTISNVQSEDLADYFCQQYSSYPYTFGGGTKLEIK
notes: also called mAb123-556F6B8
In the case of B1, the results for the Mean fluorescence intensity in test [1] and in test [2] were 6.8 MFI and 83.7 MFI, respectively. Besides, in test [3], the “Inhibition rate (%)” value came to 95.6%.

B2: 405B8H3 (mouse antibody purified from hybridoma) (antibody, V domains shown)
VH: QVQLQQSGAELVRPGASVTLSCKASGYTFTDYEMHWVKQTPVHGLEWIGATDPETGNSAYNQKFKGKAIMTADKSSSTAYMELRSLTSEDSAVYYCISTGWNDWGQGTSLTVSS
VL: DIKMTQSPSSMYASLGERVTITCKASQDINSYLSWFQQKPGKSPKTLIYRADRLLDGVPSRFSGSGSGQDYSLTISSLEYGDMGIYYCLQYDEFPYTFGGGTKLEIK
notes: also called mAb103-405B8H3; 405B81-13
B2: the Mean fluorescence intensity in test [1] is 8.7 MFI; in test [2] it was 324 MFI. In addition, in test [3], the “Inhibition rate (%)” value turned out to be 93.6%.

B3: 105F1E10 (mouse antibody purified from hybridoma) (antibody, V domains shown)
VH: EVQLQQSGPELVKPGASVKMSCRASGYTFTDFKMHWMKQSHGKSLEWIGYIAPNNGGTAYNQKFRGKATLTVNESSNTAYMELRSLTSEDSAVYYCVDWDDVDYWGQGTTLTVSS
VL: DIKMTQSPSSMYASLGERVTITCKASQDINSYLSWFQQKSGKSPKTLIYRANRLVDGVPSRFSGSGSGQDYSLTISSLEYEDMGIYYCLQYVEFPLTFGAGTKLELK
notes: also called mAb009-105F1E10
B3: the Mean fluorescence intensity was found to be 8.6 MFI in test [1] and 330 MFI in test [2]. The “Inhibition rate (%)” value in test [3] came out at 93.6%.

B4: 409D4E10 (mouse antibody purified from hybridoma) (antibody, V domains shown)
VH: QVQLQQSGAELVRPGASVTLSCKASGNTFTDYEMHWVKQTPVHGLEWIGATDPETDNTAYNQKFKGKAILTTDKSSSTAYMELRSLTSEDSAVYYCITSGWNDWGQGTSLTVSS
VL: DIKMTQSPSSMYASLGERVTITCKASQDINSYLSWFQQKPGKSPKTLIYRANRLLDGVPSRFSGSGSGQDYSLTISSLEYEDMGIYYCLQYNEFPYTFGGGTKLEIK
notes: also called mAb112-409D4E10
For the molecule B4, the Mean fluorescence intensity in test [1] worked out at 4.9 MFI; in test [2], 154 MFI. For the same molecule, the “Inhibition rate (%)” value in test [3] is 95.8%.

B5: 409B11E12 (mouse antibody purified from hybridoma) (antibody, V domains shown)
VH: QVQLQQSGAELVRPGASVTLSCKASGYTFTDYEMHWVKQTTVHGLEWIGATDPETSYSAYNQKFKGKAILTADKSSSTAYMELRSLTSEDSAVYYCIATGWNDWGQGTSLTVSS
VL: DLKMTQSPSSMYASLGERVTITCKASQDINSYLSWFQQKPGKSPKTLIYRANRLLDGVPSRFSGSGSGQDYSLTISSLEYEDMGIYYCLQYDEFPYTFGGGTKLEIK
notes: also called mAb104-409B11E12
Turning to B5, the Mean fluorescence intensity is 5 MFI in test [1] and 144 MFI in test [2]. In addition, in test [3], the “Inhibition rate (%)” value came out at 95.3%.
